Drawing on patent publication US20120207760A1, this text covers FACS M2-HK MFI, Trimeric HA Binding RLU and Trimeric HA Binding: RLU for 13 molecules.

B1: 3241_G23 (antibody, V domains shown)
VH: QVQLQQSGPGLVKPSQTLSLTCTVSGGPVSGGGYSWNWIRQRPGQGLEWVGFMFHSGSPRYNPTLKSRITISVDTSKNLVSLKLSSVTAADTAVYFCARVGQMDKYYAMDVWGQGTTVTVSS
VL: DIQMTQSPSSLSSSVGDRVTITCRASQSIGAYVNWYQQKAGKAPQVLIFGASNLQSGVPSRFSGSGSGTDFTLTISSLQPEDFATYFCQQTYSTPITFGQGTRLEIK
B2: 3242_P05 (antibody, V domains shown)
VH: DMQLVESGGGLVPPGGSLRLSCAASGFSVSDNYINWVRQAPGKGLDWVSVFYSADRTSYADSVKGRFTVSSHDSKNTVYLQMNSLRAEDTAVYYCARVQKSYYGMDVWGQGTTVTVSS
VL: GIQMTQSPSSLSASVGDRVTITCRASQSISRYLNWYLQKPGKAPKLLISGASSLQSGVPSRFSGTGSGTEFTLTISSLQPEDFATYYCQQTFSIPLFGQGTKVEIK
B3: 3362_B11 (antibody, V domains shown)
VH: QVQLQASGPGLVKPSETLSLTCTVSGDSITSGAYYWTWIRQHPGKGLEWIGYIYYSGNTYYNPSLKSRVTISLDTSKNQFSLKVNSVTAADTAVYYCARAASTSVLGYGMDVWGQGTTVTVSS
VL: DIQMTQSPSSLSASVGDRVTITCRASQSISRYLNWYQQEPGKAPKLLVYAASSLQSGVPSRFSGSGSGTDFTLTISSLQPEDFATYYCQQSYSTPLTFGQGTRLEIK
B4: 3244_I10 (antibody, V domains shown)
VH: QVQLQESGPGLLKPSDTLALTCTVSGGSITSDYWSWIRQPPGRGLDWIGFFYNGGSTKYNPSLKSRVTISADTSKNQLSLKLTSVTAADTGVYYCARHDAKFSGSYYVASWGQGTRVTVSS
VL: DIQMTQSPSSLSASVGDRVTISCRASQSISTYLNWYQQQPGKAPKVLIFGATNLQSGVPSRFSGSGSGTDFTLTISSLQPEDFATYYCQQSYNTPLIFGQGTKLEIK
B5: TCN-537 (3194_D21) (antibody, V domains shown)
VH: QVQLQQWGSGLLKPSETLSLTCAVYGGSFRDDYWTWIRQPPGKGLEWIGEINHSGRTNYNPSLKSRVTISVDTSLKQFSLKVISVTAADTAVYYCARGTSHVSRYFDWLPPTNWFDPWGQGTQVTVSS
VL: DIVLTQSPGTLSLSPGERATLSCRASQSVSSSYLAWYQQKPGQAPRLVMYGAATRATGIPDRFSGSGSGPDFTLTISRLEPEDFAMYYCQQYGNSPITFGQGTRLEIK
B6: TCN-558 (5248_H10b) (antibody, V domains shown)
VH: QVQLVQSGSEVKKPGTSVKVSCTASGSVFTNYGISWVRQAPGQGLEWMGGIIPLFGAAKYAQKFQGRVTITADESTKTVYMELSRLTSKDTAIYFCAKAPRVYEYYFDQWGQGTPVTVSS
VL: EIVMTQFPATLSVSPGERVTLSCRASQSVSNNLAWYQQKPGQPPRLLIYDASTRATGVPAKFSGTGSGTEFTLSISSLQSEDFAVYYCQQYHNWPPSYSFGLGTKLEIK
B7: TCN-546 (5089_L08) (antibody, V domains shown)
VH: QVQLQQWGAGLLKPSETLSLTCGVYGGSLSDYYWSWIRQPPGKGLEWIGEINHSGGTNYNPSLKRRVTISVDTSKKQFSLKMNSVTAADTAVYYCARGTDPDTEVYCRAGNCAAFDFWGQGTLVTVSS
VL: EIVLTQSPGTLSLSPGERATLSCRASHFVIGRAVAWYQQKPGQAPRLLIYGASSRATGIPDRFSGSGSGTDFTLTISRLETEDFAVFYCQHYGSSPRYAFGQGTKLEIK
B8: TCN-552 (5249_I23) (antibody, V domains shown)
VH: QVQVVQSGAEVKKPGSSVRVSCQASGGTFMNYAIIWVRRAPGQGLEWMGGIIPVFPTPNYAQMFQGRVTISTDESRSTSFLELTNLRYEDTAVYYCARRIYHGGNSGFDFWGQGTLVTVSS
VL: EIVLTQSPATLSLSPGERATLSCRASQSVGNYLAWYQQKPGQAPRLLIYDSSNRAPGIPARFSGSGSGTDFTLTISSLAPEDFAVYYCQQRSKWPPMYSFGHGTKLEIK
B9: TCN-540 (5060_F05) (antibody, V domains shown)
VH: QVQLVQSGGGVVQPGRSLRLSCAASGFTFSSYAMHWVRQAPGKGLEWVAIISYDGNDQYYTDSVKGRFTISRDSSKVYLQMHRLRPEDTAVYYCAKEFETSGYFHGSFDYWGQGILVTVSS
VL: QSALTQPASVSGSPGQSITISCTGTSSDVGGYNYVSWYQQHPGKAPKLLIYEVTNWPSGVSNRFSGSKSGNTASLTISGLQAEDEADYYCSSYAGSSTWVFGGGTRVTVL
B10: TCN-550 (5096_F06) (antibody, V domains shown)
VH: QVQLQESGPGLVKPSETLSLTCTVSGASINSHYWSWIRQPPGKGLEWIGYVYYSGSTTYNPSLKSRVTLSVDTSKNQFSLNLSSVTAADTAFYYCARHPYDVLTGSGDWFDPWGQGTLVTVSS
VL: SYVLTQAPSVSVAPGQTARITCGGNAIGSKKVHWYQHKAGQAPVLVVYDDTDRPSGIPERFSGSNSWSTATLTINRVEAGDEADYYCQVWDFTIDHVVFGGGTKLTVL
B11: TCN-553 (5261_C18) (antibody, V domains shown)
VH: QVQVVQSGTEVKKPGSSVKVSCQTSGGRFMSYAITWVRQAPGQGLEWMGGIVPVFGTANYAQKFQGRVTITTDDSTRTAYMELSSLRSEDTAVYYCGFRYGSGYGFDSWGQGTLVTVSS
VL: EIVLTQSPGTLSLSPGERATLSCRASQSVSSSYLAWYQKKPGQAPRLLIYGASTRATGIPDRFTGSGSGTDFTLSISRLEPEDFAVYYCQHFGTSVFTFGGGTKVEIK
B12: TCN-554 (5277_M05) (antibody, V domains shown)
VH: QVQLVQSGADLKKPGASVKVSCKASGYTFTDYYIHWVRQAPGQGLEWMGWINPESGDTKYAQKFQGRVTMTRDTSITTAYMELGRLRSDDTAVYYCARDVSTTWSWFAPWGQGTLVTVSS
VL: DIVMTQSPDSLAVSLGERATINCRSSQSIFHNSNNENYLAWYQQKPGQPPKLLIYWASTRESGVPDRFSGSGSGTDFTLTISSLQAEDVAVYFCQQYYNAPLTFGGGTKVEIK
B13: TCN-542 (5079_A16) (antibody, V domains shown)
VH: QVQLQESGPGLVKPSQTLSLTCTVSGGSISSGNYYWNWVRQHPGKGLEWIGYIYYRGSTFYNPSLKSRVTISIDTSKNQFSLRLSSVTAADTAVYYCAKDTRSSLDNYQYGMDVWGQGTTVTVSS
VL: QTVVTQEPSLTVSPGGTVTLTCASSTGAVTSSYFPNWFQQKPGQAPRPLIYSTTIRHSWTPARFSGSLLGGKAALTLSGVQPEDEADYYCLLYSGGDPVAFGGGTKLTVL

The target of the first test is M2 protein of influenza A/Hong Kong/483/97 (H5N1) (Influenza A virus A/Hong Kong/483/97).
Test: not given
Details: not given
In the case of B1, the FACS M2-HK MFI was determined as 1700 MFI.
Same read-out and setting: under B2 stands 596 MFI.
Still for that read-out and setting: under B3 stands 218 MFI; under B4, 434 MFI.

In the next test the target is recombinant homotrimeric HA, A/California/4/09 H1N1 (Influenza A virus A/California/4/09 (H1N1)). The experiment in a line: trimeric HA microarray, transfection set 5. To be noted: remark: other sources report otherwise.
With B5, the Trimeric HA Binding RLU was found to be 33800 RLU.
Still for that read-out and setting: under B6 stands 20200 RLU; under B7, 1080 RLU; under B8, 23500 RLU.
The same measure, in the same setting: under B9 stands 984 RLU.
Take B10: the Trimeric HA Binding RLU is 628 RLU.
The same measure, in the same setting: to B11 belongs 23300 RLU.

The next test has as its target recombinant homotrimeric HA, A/Indonesia/5/05 H5N1 (Influenza A virus A/Indonesia/5/05 (H5N1)). Put plainly: trimeric HA microarray, transfection set 5. To be noted: remark: other sources report otherwise.
With B7, the Trimeric HA Binding RLU is 40900 RLU.
Take B8: the Trimeric HA Binding RLU amounted to 43400 RLU.
On the same count and under the same terms, under B9 stands 2570 RLU.
The same measure, in the same setting: under B10 stands 9000 RLU; under B11, 31200 RLU.

For another test, the target named is recombinant homotrimeric HA, A/Japan/305/57 H2N2 (Influenza A virus A/Japan/305/57 (H2N2)). The experiment in a line: trimeric HA microarray, transfection set 5. To be noted: remark: other sources report otherwise.
In the case of B5, the Trimeric HA Binding RLU was 16200 RLU.
The same measure, in the same setting: under B12 stands 2620 RLU.
Still for that read-out and setting: to B6 belongs 34400 RLU.
Still for that read-out and setting: under B7 stands 1730 RLU; under B8, 52000 RLU; under B9, 47900 RLU.
Consider B10, for which the Trimeric HA Binding RLU was found to be 731 RLU.
In the case of B13, the Trimeric HA Binding RLU turned out to be 5180 RLU.
On the same count and under the same terms, under B11 stands 39800 RLU.

The target in the next test is recombinant homotrimeric HA, A/Solomon Islands/3/06 H1N1 (Influenza A virus A/Solomon Islands/3/06 (H1N1)). The experiment in a line: trimeric HA microarray, transfection set 5. The note with it: remark: other sources report otherwise.
B12: the Trimeric HA Binding RLU turned out to be 992 RLU.
Same read-out and setting: under B6 stands 36100 RLU; under B8, 48600 RLU; under B9, 1180 RLU.
The same measure, in the same setting: to B10 belongs 758 RLU; to B11, 49600 RLU.

In another test the target is recombinant homotrimeric HA, A/South Carolina/1/18 H1N1 (Influenza A virus A/South Carolina/1/18 (H1N1)). The experiment in a line: trimeric HA microarray, transfection set 5. To be noted: remark: other sources report otherwise.
On to B5, for which the Trimeric HA Binding RLU was found to be 46800 RLU.
Still for that read-out and setting: to B12 belongs 1260 RLU.
Same read-out and setting: under B6 stands 40700 RLU.
Take B7: the Trimeric HA Binding RLU was 955 RLU.
Same read-out and setting: under B8 stands 37400 RLU.
Same read-out and setting: under B9 stands 1360 RLU; under B10, 1010 RLU; under B13, 1120 RLU.
Same read-out and setting: under B11 stands 41300 RLU.

In a further test the target is recombinant homotrimeric HA, A/Vietnam/1203/04 H5N1 (Influenza A virus A/Vietnam/1203/04 (H5N1)). The experiment in a line: trimeric HA microarray, transfection set 5. The note with it: remark: other sources report otherwise.
B8: the Trimeric HA Binding RLU was found to be 18500 RLU.
The same measure, in the same setting: under B11 stands 19200 RLU.

The target of the next test is recombinant homotrimeric HA, A/Wisconsin/67/05 H3N2 (Influenza A virus A/Wisconsin/67/05 (H3N2)). The experiment in a line: trimeric HA microarray, transfection set 5. The note with it: remark: other sources report otherwise.
With B5, the Trimeric HA Binding RLU is 1940 RLU.
As for B12, the Trimeric HA Binding RLU stood at 25300 RLU.
B6: the Trimeric HA Binding RLU was 26600 RLU.
Still for that read-out and setting: to B7 belongs 28500 RLU.
Same read-out and setting: to B8 belongs 18500 RLU.
B9: the Trimeric HA Binding RLU came out at 53000 RLU.
The same measure, in the same setting: under B10 stands 37800 RLU; under B11, 25200 RLU.

A further test has as its target recombinant homotrimeric HA, A/swine/Ontario/01911-2/99 H4N6 (Influenza A virus A/swine/Ontario/01911-2/99 (H4N6)). The experiment in a line: trimeric HA microarray, transfection set 5. To be noted: remark: other sources report otherwise.
On to B5, for which the Trimeric HA Binding RLU came to 3280 RLU.
The same measure, in the same setting: to B12 belongs 5400 RLU; to B6, 10000 RLU.
Same read-out and setting: to B8 belongs 9080 RLU; to B13, 14300 RLU; to B11, 12200 RLU.

The target of a further test is recombinant soluble homotrimeric HA of A/northern shoveler/California/HKWF115/07 (Influenza A virus A/northern shoveler/California/HKWF115/2007). The experiment in a line: microarray, BCC supernatant IgG, trimeric HA. The note with it: remark: other sources report otherwise.
Consider B7, for which the Trimeric HA Binding: RLU worked out at 1350 RLU.
Take B13: the Trimeric HA Binding: RLU was found to be 900 RLU.
